T1: 重组人rNKG2D分子 (recombinant human NKG2D) (human, UniProt P26718 78-216, limits assumed)
T1 construct: Used as SPR analyte; source and construct are not described
T1 sequence (looked up): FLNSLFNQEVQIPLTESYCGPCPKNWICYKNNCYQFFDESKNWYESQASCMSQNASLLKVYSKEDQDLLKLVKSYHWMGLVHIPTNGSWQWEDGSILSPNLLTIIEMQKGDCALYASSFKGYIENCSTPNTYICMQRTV

T2: CD24裸肽 (CD24 naked peptide) (human, UniProt P25063 27-59, limits assumed)
T2 construct: also called 抗原CD24
T2 peptide (looked up): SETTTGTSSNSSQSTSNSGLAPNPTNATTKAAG

B1: 靶向CD24的双特异性抗体cG7-MICA (anti-CD24 humanized chimeric antibody cG7 fused at the heavy chain C-terminus to the human MICA extracellular domains 1-3) (bispecific antibody)
heavy: not shown
light: DIVMTQTPLSLSVTIGQPASISCKSSQSLLHSDGKTYLNWLLQRPGQSPKRLIYLVSKLDSGVPDRFTGSGSGTDFTLKVSRVEAEDLGVYYCWQGAHFPYTFGGGTKLEIKVDTVAAPSVFIFPPSDEQLKSGTASVVCLLNNFYPREAKVQWKVDNALQSGNSQESVTEQDSKDSTYSLSSTLTLSKADYEKHKVYACEVTHQGLSSPVTKSFNRGEC
notes: Expressed in CHO-s, purified on Protein A, about 210 kD
B2: 抗CD24人源化嵌合抗体cG7 (antibody, V domains shown)
VH: QVKLEESGGGLVQPGGSLKISCAASGFDFSRYWMSWVRQAPGKGLEWIGEINPDSSTINYTPSLRDKFIISRDNAKNTLYLQMSKVRYEDTSLYYCARQGDYWGQGTSVTVSS
VL: not shown

Legend:
[1] = target: T1, 重组人rNKG2D分子 (recombinant human NKG2D); assay: SPR, Biacore X100; cG7-MICA captured by anti-human IgG(Fc) on a CM5 chip, recombinant human rNKG2D as analyte (100-6.25 nM)
[2] = target: T2, CD24裸肽 (CD24 naked peptide); assay: SPR, Biacore X100; antibody captured by anti-human IgG(Fc) on a CM5 chip, CD24 naked peptide as analyte (100-0.39 nM), 25 C

Binder | Kd [1] | koff [1] | kon [1] | Kd [2] | koff [2] | kon [2]
B1 | 576 nM | 0.0015 s⁻¹ | 2620 M⁻¹ s⁻¹ | 0.242 nM | 0.000339 s⁻¹ | 1.4e+06 M⁻¹ s⁻¹
B2 |  |  |  | 0.191 nM | 0.000336 s⁻¹ | 1.76e+06 M⁻¹ s⁻¹

From patent publication CN109678963A (UNIV CHINA PHARMA, dated 2019)
